The data set concerns the molecule itself. The data set can be described thus: cryo-EM structure.

B1: glutamine synthetase (GS) (enzyme)
chain: MATSASSHLNKGIKQMYMNLPQGEKIQLMYIWVDGTGEGLRCKTRTLDCDPKCVEELPEWNFDGSSTFQSEGSNSDMYLHPVAMFRDPFRRDPNKLVFCEVFKYNRKPAETNLRHSCKRIMDMVSSQHPWFGMEQEYTLMGTDGHPFGWPSNGFPGPQGPYYCGVGADKAYGRDIVEAHYRACLYAGIKITGTNAEVMPAQWEFQIGPCEGIRMGDHLWVARFILHRVCEDFGVIATFDPKPIPGNWNGAGCHTNFSTKAMREENGLRCIEEAIDKLSKRHQYHIRAYDPKGGLDNARRLTGFHETSNINDFSAGVANRSASIRIPRIVGQEKKGYFEDRRPSANCDPYAVTEAIVRTCLLNETGDEPFQYKN
In the case of B1, the stoichiometry N (commonly a count of units in the complex or per binding partner) was 10.

The values above are taken from article doi:10.1101/2024.07.11.602936 (bioRxiv, 2024).
